Reference: patent US20250043302A1, “MUTATED HYDROXYPHENYLPYRUVATE DIOXYGENASE POLYPEPTIDE, AND CODING GENE AND USE THEREOF” (BEIJING DABEINONG BIOTECHNOLOGY CO., LTD., priority 2021, published 2025)
Positions count from the first letter of the chain named. Names may count otherwise.

B1: GmHPPDm-F372A-F383W-02: nucleotide sequence encoding Glycine max HPPD with F372A+F383W; vector DBN11749 (nucleic acid)
DNA: ATGCCAATGTACACACCATCGCTCTCCGCCCCTTCTTCCAACCATATTCAGCCATCCGTGACTCTGCCTCTCTACATCACAACCACCAAGTTGAACCTGAAGCAGCAGCACCATACGACTCCTATGCCTATACCCATGTGCAATGAGATCCAAGCACAGGCTCAGGCACAAGCTCAACCCGGATTCAAACTCGTGGGATTCAAGAACTTCGTCCGTACCAATCCAAAATCTGACCGCTTCCAGGTGAACAGATTCCACCACATAGAGTTTTGGTGTACTGATGCAACGAATGCTTCGAGGAGGTTTTCATGGGGCTTAGGCATGCCGATTGTAGCAAAGTCAGACCTTTCTACAGGGAACCAAATTCATGCAAGCTATCTGCTCCGCTCAGGTGATTTGTCTTTCTTGTTCTCAGCTCCATATTCTCCATCATTATCTGCTGGGTCATCAGCAGCATCTAGTGCGTCGATCCCTAGCTTTGATGCCGCCACCTGCCTCGCCTTCGCCGCCAAACATGGATTTGGTGTTCGCGCCATTGCTCTTGAGGTTGCCGATGCCGAGGCTGCTTTTAGCGCCTCCGTCGCCAAGGGAGCTGAGCCTGCGTCACCTCCTGTTCTTGTTGATGATCGAACTGGTTTTGCTGAAGTGCGTCTTTACGGCGACGTGGTGCTCAGATATGTTAGTTACAAGGATGCTGCTCCTCAAGCGCCGCACGCTGATCCTTCAAGATGGTTTCTTCCGGGGTTTGAGGCCGCTGCTAGTTCATCTTCCTTCCCGGAGTTGGATTACGGCATACGGCGGCTTGACCATGCTGTCGGCAATGTTCCTGAGCTTGCTCCGGCGGTACGGTACTTGAAAGGTTTCTCCGGGTTCCATGAATTTGCAGAGTTCACGGCGGAAGATGTTGGAACAAGTGAAAGCGGATTGAATTCTGTTGTTTTGGCCAACAACAGTGAAACTGTTCTGCTCCCCCTCAATGAACCAGTTTATGGCACAAAGCGCAAGAGCCAGATTGAAACATATCTCGAGCACAATGAAGGCGCCGGCGTCCAGCATCTTGCTTTGGTGACTCATGATATCTTCACAACACTTAGGGAGATGAGGAAGAGGAGTTTCCTCGGCGGGTTTGAATTCATGCCCAGTCCCCCGCCGACCTACTATGCAAATCTGCACAACAGGGCTGCAGATGTGCTGACTGTAGACCAGATCAAGCAATGTGAAGAACTTGGAATTTTAGTGGATAGAGACGACCAAGGTACACTACTTCAAATAGCCACCAAACCAGTCGGTGACAGACCAACAATTTGGATCGAGATTATACAAAGAATTGGATGCATGGTCGAGGATGAAGAAGGGAAGGTGTACCAGAAGGGAGCATGTGGTGGTTTTGGGAAAGGAAATTTTTCTGAGCTGTTTAAATCCATCGAGGAATATGAGAAAACCTTAGAAGCTAAAAGAACTGCATGA
modifications: GmHPPDm-F372A-F383W-02 Nucleotide Sequence
notes: vector DBN11749
B2: GmHPPDm-F383W-02: nucleotide sequence encoding Glycine max HPPD with F383W; vector DBN11748 (nucleic acid)
DNA: B1 DNA with G1273T, C1274T
modifications: GmHPPDm-F383W-02 Nucleotide Sequence
notes: vector DBN11748
B3: GmHPPDm-F372A-02: nucleotide sequence encoding Glycine max HPPD with F372A; vector DBN11747 (nucleic acid)
DNA: B1 DNA with G1307T, G1308C
modifications: GmHPPDm-F372A-02 Nucleotide Sequence
notes: vector DBN11747

system: Arabidopsis thaliana T1 plants; assay: Topramezone tolerance of transgenic Arabidopsis thaliana T1 plants (spray, bleached leaf area grade, damage score); type: in vivo; conditions: number of plants; topramezone 25 g ai/ha (1×), 7 DAT; Table 4
Summary of the method: (§1)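 T1 transformants selected by glufosinate; 18-day-old plants, with empty-vector and wild-type controls, sprayed with topramezone (25–200 g ai/ha), isoxaflutole (35–280 g ai/ha) or mesotrione (52.5–420 g ai/ha), water as 0×. Bleached leaf area fraction scored at 7 DAT as grades 0–3.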

Compared with B1, B2 is lower in “Classification and statistics of the grade of pesticide damage: Grade 0” value: 9 for the first, 0 for the second.

B3 was tested, and the “Classification and statistics of the grade of pesticide damage: Grade 0” value was 0.

First: B1
Second: B2
The “Classification and statistics of the grade of pesticide damage: Grade 1” value of the first is higher: 7 for the first, 3 for the second.

B3 was tested, and the “Classification and statistics of the grade of pesticide damage: Grade 1” value was 12.

Going from B1 to B2, the “Classification and statistics of the grade of pesticide damage: Grade 2” value rises from 0 to 9.

With B3 the “Classification and statistics of the grade of pesticide damage: Grade 2” value was 4.

Going from B1 to B2, the “Classification and statistics of the grade of pesticide damage: Grade 3” value rises from 0 to 4.

For B3, the “Classification and statistics of the grade of pesticide damage: Grade 3” value was 0.

same assay, conditions: number of plants; topramezone 100 g ai/ha (4×), 7 DAT; Table 4

Compared with B1, B2 is lower in “Classification and statistics of the grade of pesticide damage: Grade 0” value: 5 for the first, 0 for the second.

For B3, the “Classification and statistics of the grade of pesticide damage: Grade 0” value was 0.

First: B1
Second: B2
The “Classification and statistics of the grade of pesticide damage: Grade 1” value of the first is higher: 6 for the first, 0 for the second.

In the case of B3, the “Classification and statistics of the grade of pesticide damage: Grade 1” value is reported as 0.

Compared with B1, B2 is lower in “Classification and statistics of the grade of pesticide damage: Grade 2” value: 4 for the first, 0 for the second.

B3 was tested, and the “Classification and statistics of the grade of pesticide damage: Grade 2” value was 0.

Compared with B1, B2 is higher in “Classification and statistics of the grade of pesticide damage: Grade 3” value: 1 for the first, 16 for the second.

With B3 the “Classification and statistics of the grade of pesticide damage: Grade 3” value was 16.

same assay, conditions: pesticide damage score 0-100; topramezone 25 g ai/ha (1×), 7 DAT; Table 4

Compared with B1, B2 is higher in Scores: 15 for the first, 69 for the second.

B3 was tested, and the Scores was 42.

same assay, conditions: pesticide damage score 0-100; topramezone 100 g ai/ha (4×), 7 DAT; Table 4

Going from B1 to B2, the Scores rises from 35 to 100.

B3 showed a Scores of 100.

same assay, conditions: topramezone 25 g ai/ha (1×), 7 DAT; Table 4

B1 was tested, and the Resistance evaluation was “highly”.
For B2, the Resistance evaluation was “non-resistant (non-resistant plants (scores 68-100))”.
For B3, the Resistance evaluation was “poorly”.

same assay, conditions: topramezone 100 g ai/ha (4×), 7 DAT; Table 4

B1 was tested, and the Resistance evaluation was “poorly”.
B2 was tested, and the Resistance evaluation was “non-resistant (non-resistant plants (scores 68-100))”.
With B3 the Resistance evaluation was “non-resistant (non-resistant plants (scores 68-100))”.

system: Arabidopsis thaliana T1 plants; assay: Isoxaflutole tolerance of transgenic Arabidopsis thaliana T1 plants (spray, bleached leaf area grade, damage score); type: in vivo; design: Scores (pesticide damage): scale not given here; conditions: isoxaflutole 35 g ai/ha (0.5x field concentration), spray, Arabidopsis thaliana T1 plants
Summary of the method: as §1

With B1 the Resistance evaluation was “Highly”.
For B2, the Resistance evaluation was “Non-resistant”.
B3 was tested, and the Resistance evaluation was “Poorly”.

First: B1
Second: B2
The “Scores (pesticide damage)” value of the first is lower: 15 for the first, 81 for the second.

With B3 the “Scores (pesticide damage)” value was 65.

same assay, conditions: isoxaflutole 35 g ai/ha (0.5x field concentration), spray, Arabidopsis thaliana T1 plants, 16 plants

First: B1
Second: B2
The “Classification and statistics of the grade of pesticide damage: Grade 0 (number of plants)” value of the first is higher: 9 for the first, 0 for the second.

B3 was tested, and the “Classification and statistics of the grade of pesticide damage: Grade 0 (number of plants)” value was 0.

Going from B1 to B2, the “Classification and statistics of the grade of pesticide damage: Grade 1 (number of plants)” value falls from 7 to 0.

For B3, the “Classification and statistics of the grade of pesticide damage: Grade 1 (number of plants)” value was 3.

Going from B1 to B2, the “Classification and statistics of the grade of pesticide damage: Grade 2 (number of plants)” value rises from 0 to 9.

In the case of B3, the “Classification and statistics of the grade of pesticide damage: Grade 2 (number of plants)” value is reported as 11.

Going from B1 to B2, the “Classification and statistics of the grade of pesticide damage: Grade 3 (number of plants)” value rises from 0 to 7.

With B3 the “Classification and statistics of the grade of pesticide damage: Grade 3 (number of plants)” value was 2.

same assay, conditions: isoxaflutole 70 g ai/ha (1x field concentration), spray, Arabidopsis thaliana T1 plants

With B1 the Resistance evaluation was “Poorly”.
For B2, the Resistance evaluation was “Non-resistant”.
In the case of B3, the Resistance evaluation is reported as “Non-resistant”.

Compared with B1, B2 is higher in “Scores (pesticide damage)” value: 40 for the first, 100 for the second.

B3 was tested, and the “Scores (pesticide damage)” value was 100.

same assay, conditions: isoxaflutole 70 g ai/ha (1x field concentration), spray, Arabidopsis thaliana T1 plants, 16 plants

Compared with B1, B2 is lower in “Classification and statistics of the grade of pesticide damage: Grade 0 (number of plants)” value: 4 for the first, 0 for the second.

In the case of B3, the “Classification and statistics of the grade of pesticide damage: Grade 0 (number of plants)” value is reported as 0.

First: B1
Second: B2
The “Classification and statistics of the grade of pesticide damage: Grade 1 (number of plants)” value of the first is higher: 6 for the first, 0 for the second.

With B3 the “Classification and statistics of the grade of pesticide damage: Grade 1 (number of plants)” value was 0.

Going from B1 to B2, the “Classification and statistics of the grade of pesticide damage: Grade 2 (number of plants)” value falls from 5 to 0.

B3 was tested, and the “Classification and statistics of the grade of pesticide damage: Grade 2 (number of plants)” value was 0.

Going from B1 to B2, the “Classification and statistics of the grade of pesticide damage: Grade 3 (number of plants)” value rises from 1 to 16.

With B3 the “Classification and statistics of the grade of pesticide damage: Grade 3 (number of plants)” value was 16.

system: Arabidopsis thaliana T1 plants; assay: Mesotrione tolerance of transgenic Arabidopsis thaliana T1 plants (spray, bleached leaf area grade, damage score); type: in vivo; design: Scores: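 damage score 0-100 computed as Σ(N×S)/(T×M)×100 over grades 0-3 with higher meaning more damage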; conditions: mesotrione 52.5 g ai/ha; Arabidopsis thaliana T1 plants
Summary of the method: as §1

For B1, the Resistance evaluation was “Moderately”.
In the case of B2, the Resistance evaluation is reported as “Non-resistant”.
For B3, the Resistance evaluation was “Poorly resistant”.

Compared with B1, B2 is higher in Scores: 23 for the first, 100 for the second.

For B3, the Scores was 67.

same assay, conditions: mesotrione 52.5 g ai/ha; Arabidopsis thaliana T1 plants; 16 plants

First: B1
Second: B2
The “Grade 0 (classification and statistics of the grade of pesticide damage; number of plants)” value of the first is higher: 6 for the first, 0 for the second.

In the case of B3, the “Grade 0 (classification and statistics of the grade of pesticide damage; number of plants)” value is reported as 0.

Compared with B1, B2 is lower in “Grade 1 (classification and statistics of the grade of pesticide damage; number of plants)” value: 9 for the first, 0 for the second.

With B3 the “Grade 1 (classification and statistics of the grade of pesticide damage; number of plants)” value was 2.

First: B1
Second: B2
The “Grade 2 (classification and statistics of the grade of pesticide damage; number of plants)” value of the first is higher: 1 for the first, 0 for the second.

With B3 the “Grade 2 (classification and statistics of the grade of pesticide damage; number of plants)” value was 12.

First: B1
Second: B2
The “Grade 3 (classification and statistics of the grade of pesticide damage; number of plants)” value of the first is lower: 0 for the first, 16 for the second.

With B3 the “Grade 3 (classification and statistics of the grade of pesticide damage; number of plants)” value was 2.

same assay, conditions: mesotrione 105 g ai/ha; Arabidopsis thaliana T1 plants

B1 was tested, and the Resistance evaluation was “Poorly resistant”.
For B2, the Resistance evaluation was “Non-resistant”.
For B3, the Resistance evaluation was “Non-resistant”.

Compared with B1, B2 is higher in Scores: 46 for the first, 100 for the second.

In the case of B3, the Scores is reported as 100.

same assay, conditions: mesotrione 105 g ai/ha; Arabidopsis thaliana T1 plants; 16 plants

First: B1
Second: B2
The “Grade 0 (classification and statistics of the grade of pesticide damage; number of plants)” value of the first is higher: 2 for the first, 0 for the second.

B3 was tested, and the “Grade 0 (classification and statistics of the grade of pesticide damage; number of plants)” value was 0.

Going from B1 to B2, the “Grade 1 (classification and statistics of the grade of pesticide damage; number of plants)” value falls from 7 to 0.

In the case of B3, the “Grade 1 (classification and statistics of the grade of pesticide damage; number of plants)” value is reported as 0.

First: B1
Second: B2
The “Grade 2 (classification and statistics of the grade of pesticide damage; number of plants)” value of the first is higher: 6 for the first, 0 for the second.

B3 was tested, and the “Grade 2 (classification and statistics of the grade of pesticide damage; number of plants)” value was 0.

First: B1
Second: B2
The “Grade 3 (classification and statistics of the grade of pesticide damage; number of plants)” value of the first is lower: 1 for the first, 16 for the second.

For B3, the “Grade 3 (classification and statistics of the grade of pesticide damage; number of plants)” value was 16.
